The values that follow come from publication PMC9860685, “α-Crystallin Domains of Five Human Small Heat Shock Proteins (sHsps) Differ in Dimer Stabilities and Ability to Incorporate Themselves into Oligomers of Full-Length sHsps” (International Journal of Molecular Sciences, 2023).

Data set [1] addresses T1, 3D mutant of HspB1 (S15D, S78D, S82D) (human, UniProt P04792 1-205, S15D | S78D | S82D).
T1 construct: human HspB1, full length, with three phosphomimicking point mutations; Forms small oligomers (probably dimers or tetramers, by cited work); also called full-length 3D mutant
The experiment in a line: SEC; full-length sHsp (~19–20 μM per monomer) mixed with ACD (38–110 μM per monomer) in buffer B, 30 min at 42 °C; Superdex 200 Increase column in 50 mM phosphate pH 7.4, 150 mM NaCl, 2 mM DTT; fractions analysed by SDS–PAGE. The note with it: both partners purified. For orientation: Size exclusion chromatography separates by hydrodynamic size, large species first.

Data set [2] deals with the molecule itself. Description: SEC; Superdex 75 10/300 GL, 50 mM phosphate pH 7.4, 150 mM NaCl, 2 mM DTT; 25 μL samples of 16–150 μg (25–600 μM per monomer); apparent dissociation constant, dimer to monomers, from a hyperbolic fit of elution volume against the concentration loaded.
Data set [3] concerns the molecule itself. The experiment in a line: cross-linking; glutaraldehyde 0.008% or 0.024%, ACDs at 3 mg/mL in 25 mM HEPES pH 7.5, 30 min at 30 °C; Tricine–SDS–PAGE.
Data set [4] addresses T2, full-length HspB6 (human, UniProt O14558 1-160).
T2 construct: Predominantly dimeric by cited work; also called B6FL
T2 sequence (looked up): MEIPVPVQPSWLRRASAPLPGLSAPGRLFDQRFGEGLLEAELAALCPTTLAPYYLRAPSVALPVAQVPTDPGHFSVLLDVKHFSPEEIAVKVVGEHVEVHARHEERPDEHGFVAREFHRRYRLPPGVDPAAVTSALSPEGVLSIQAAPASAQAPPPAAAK
The experiment in a line: native gel or EMSA; clear native PAGE, 12.5% gel, 80 mM glycine–Tris pH 8.6; sHsp 5–6 μM per monomer mixed with ACD 20–24 μM per monomer, 30 min at 25 °C in buffer B; Western blot with anti-HspB6 for the complexes of HspB6. The note with it: both partners purified. (A gel shift assay detects complexes by their altered migration in electrophoresis.)

T1 sequence (P04792 whole entry S15D/S78D/S82D): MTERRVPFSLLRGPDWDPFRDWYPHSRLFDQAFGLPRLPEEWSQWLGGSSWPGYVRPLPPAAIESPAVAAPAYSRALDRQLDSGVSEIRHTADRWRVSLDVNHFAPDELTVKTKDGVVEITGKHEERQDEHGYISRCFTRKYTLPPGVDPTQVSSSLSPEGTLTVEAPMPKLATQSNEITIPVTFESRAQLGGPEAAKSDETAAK

B1: α-crystallin domain of HspB6 (B6ACD) (domain or fragment, human, UniProt O14558 64-149, looked up)
chain: VAQVPTDPGHFSVLLDVKHFSPEEIAVKVVGEHVEVHARHEERPDEHGFVAREFHRRYRLPPGVDPAAVTSALSPEGVLSIQAAPA
notes: human HspB6, α-crystallin domain, residues 64-149; Cloned by NdeI and XhoI into pET23b; In equilibrium of monomers and dimers; also called HspB6 ACD; source: E. coli, purified (ammonium sulfate fractionation, ion-exchange chromatography, size-exclusion chromatography)
On to B1, for which the binding result in data set [1] is on record as “binds”. Moreover, in data set [2], the Kd stood at 162 µM.

B2: α-crystallin domain of HspB5 (B5ACD) (domain or fragment, human, UniProt P02511 64-150, looked up)
chain: GLSEMRLEKDRFSVNLDVKHFSPEELKVKVLGDVIEVHGKHEERQDEHGFISREFHRKYRIPADVDPLTITSSLSSDGVLTVNGPRK
notes: human HspB5 (αB-crystallin), α-crystallin domain, residues 64-150; Cloned by NdeI and XhoI into pET23b; In equilibrium of monomers and dimers; also called HspB5 ACD; source: E. coli, purified (ammonium sulfate fractionation, ion-exchange chromatography, size-exclusion chromatography)
The term stoichiometry N denotes a count of units in the complex or per binding partner. With B2, the “stoichiometry N” value in data set [3] is 2. The binding result in data set [1] and in data set [4] was “binds” in each case. In data set [2], the Kd came to 127 µM.
